# ± gives the standard deviation of the averaged measurements.
# B1: library; a variant is named by its letters at N, in order (parent)
# chain: GCUGUCACCGGUGUAUUACCCUAGUGGUCGACCGGUCUGAUGAGUCUNNNNNNAGACGAAACAGC
# Key:
# hypoxanthine [1] = variants of: B1; test: FACS-Seq fitted mean relative fluorescence mCherry/BFP without ligand (log10 relative fluorescence); ligand: hypoxanthine (xanthine aptamer); higher = higher reporter protein expression; details: HEK293T, ligand present: no
# Method in brief: (§1)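 HEK293T libraries were made by lentiviral transduction with a ribozyme-switch mCherry reporter and an EF1α-BFP marker, enriched, and incubated with or without ligand for 48 h. Cells were sorted into 6 mCherry/BFP bins, and each bin's genomic DNA was PCR-amplified, barcoded and run on MiSeq. Fluorescence was derived by normal fitting of the bin counts. The fitted log10(mCherry/BFP) mean was scaled to five spiked-in control ribozymes.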
# hypoxanthine [2] = variants of: B1; test: normalized RNA/DNA level with ligand (relative to sTRSVctl = 100) (log10 (% of sTRSVctl)); ligand: hypoxanthine (xanthine aptamer); higher = less ribozyme self-cleavage, higher mRNA level; details: ligand concentration (+) RNA-Seq: 5 mM, HEK293T, reporter: mCherry (pCS4076), ligand present: yes
# Method in brief: (§2)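 Library plasmids carrying ribozyme switches linked to mCherry, or to eGFP in some ligand experiments, were transfected into HEK293T at 4 µg per 6-well well, with any ligand added 1 h earlier. Seventy-two hours on, total RNA was extracted with EDTA and reverse-transcribed, amplified, barcoded and sequenced. RNA level was RNA over DNA reads normalized to a spiked-in non-cleaving sequence or to the top sequences, then scaled and log-transformed. The top set was 25 sequences, the transform was ×100 and log10, and sequences needed ≥100 DNA reads.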
# hypoxanthine [3] = variants of: B1; test: normalized RNA/DNA level without ligand (relative to sTRSVctl = 100) (log10 (% of sTRSVctl)); ligand: hypoxanthine (xanthine aptamer); higher = less ribozyme self-cleavage, higher mRNA level; details: HEK293T, reporter: mCherry (pCS4076), ligand present: no
# Method in brief: as §2
# hypoxanthine [4] = variants of: B1; test: FACS-Seq fitted mean relative fluorescence mCherry/BFP with ligand (log10 relative fluorescence); ligand: hypoxanthine (xanthine aptamer); ligand concentration (+) FACS-Seq: 5 mM; higher = higher reporter protein expression; details: HEK293T, ligand present: yes
# Method in brief: as §1
Variant,FACS-Seq fitted mean (log10) (hypoxanthine [1]),normalized RNA/DNA level with ligand (log10) (hypoxanthine [2]),normalized RNA/DNA level without ligand (log10) (hypoxanthine [3]),FACS-Seq fitted mean (log10) (hypoxanthine [4])
GCUGUCACCGGUGUAUUACCCUAGUGGUCGACCGGUCUGAUGAGUCUUUAUGAAGACGAAACAGC [UUAUGA],-0.0342 ± 0.015,1.91 ± 0.04,1.64 ± 0.039,-0.0882 ± 0.046
GCUGUCACCGGUGUAUUACCCUAGUGGUCGACCGGUCUGAUGAGUCUUUAUACAGACGAAACAGC [UUAUAC],0.396 ± 0.054,1.908 ± 0.015,1.827 ± 0.0035,0.632 ± 0.0036
GCUGUCACCGGUGUAUUACCCUAGUGGUCGACCGGUCUGAUGAGUCUGUAUACAGACGAAACAGC [GUAUAC],0.143 ± 0.058,1.94 ± 0.067,1.82 ± 0.067,0.251 ± 0.093
GCUGUCACCGGUGUAUUACCCUAGUGGUCGACCGGUCUGAUGAGUCUGUAUAUAGACGAAACAGC [GUAUAU],-0.558 ± 0.056,1.84 ± 0.024,1.8 ± 0.041,-0.474 ± 0.016
GCUGUCACCGGUGUAUUACCCUAGUGGUCGACCGGUCUGAUGAGUCUGUAUAGAGACGAAACAGC [GUAUAG],-0.0857 ± 0.034,1.854 ± 0.0081,1.44 ± 0.065,0.479 ± 0.013
GCUGUCACCGGUGUAUUACCCUAGUGGUCGACCGGUCUGAUGAGUCUGUAGGUAGACGAAACAGC [GUAGGU],0.5146 ± 0.0047,1.95 ± 0.02,1.79 ± 0.034,0.578 ± 0.11
GCUGUCACCGGUGUAUUACCCUAGUGGUCGACCGGUCUGAUGAGUCUGUAUCUAGACGAAACAGC [GUAUCU],0.165 ± 0.12,1.966 ± 0.0064,1.94 ± 0.025,0.536 ± 0.059
GCUGUCACCGGUGUAUUACCCUAGUGGUCGACCGGUCUGAUGAGUCUGUAUGAAGACGAAACAGC [GUAUGA],0.0955 ± 0.069,1.89 ± 0.049,1.64 ± 0.012,0.000695 ± 0.097
GCUGUCACCGGUGUAUUACCCUAGUGGUCGACCGGUCUGAUGAGUCUAUAUGGAGACGAAACAGC [AUAUGG],-0.462 ± 0.062,1.802 ± 0.0067,1.374 ± 0.0022,-0.111 ± 0.04
GCUGUCACCGGUGUAUUACCCUAGUGGUCGACCGGUCUGAUGAGUCUAUAUGAAGACGAAACAGC [AUAUGA],0.609 ± 0.0086,1.924 ± 0.0023,1.7 ± 0.02,0.758 ± 0.018
GCUGUCACCGGUGUAUUACCCUAGUGGUCGACCGGUCUGAUGAGUCUAUAUAAAGACGAAACAGC [AUAUAA],0.487 ± 0.056,1.883 ± 0.015,1.77 ± 0.027,0.6452 ± 0.0064
GCUGUCACCGGUGUAUUACCCUAGUGGUCGACCGGUCUGAUGAGUCUAUAUACAGACGAAACAGC [AUAUAC],0.568 ± 0.087,1.88 ± 0.019,1.8 ± 0.069,0.572 ± 0.028
GCUGUCACCGGUGUAUUACCCUAGUGGUCGACCGGUCUGAUGAGUCUAUAUAGAGACGAAACAGC [AUAUAG],0.389 ± 0.046,1.83 ± 0.03,1.54 ± 0.057,0.611 ± 0.076
GCUGUCACCGGUGUAUUACCCUAGUGGUCGACCGGUCUGAUGAGUCUAUAGUAAGACGAAACAGC [AUAGUA],0.52 ± 0.03,1.88 ± 0.034,1.751 ± 0.013,0.621 ± 0.066
GCUGUCACCGGUGUAUUACCCUAGUGGUCGACCGGUCUGAUGAGUCUAUAGUGAGACGAAACAGC [AUAGUG],0.213 ± 0.046,1.82 ± 0.041,1.362 ± 0.012,0.348 ± 0.12
GCUGUCACCGGUGUAUUACCCUAGUGGUCGACCGGUCUGAUGAGUCUCUAGUGAGACGAAACAGC [CUAGUG],-0.00638 ± 0.00052,1.95 ± 0.1,1.85 ± 0.028,0.202 ± 0.017
GCUGUCACCGGUGUAUUACCCUAGUGGUCGACCGGUCUGAUGAGUCUCUAGUCAGACGAAACAGC [CUAGUC],0.639 ± 0.036,1.99 ± 0.074,1.91 ± 0.046,0.658 ± 0.03
GCUGUCACCGGUGUAUUACCCUAGUGGUCGACCGGUCUGAUGAGUCUGUAGUAAGACGAAACAGC [GUAGUA],0.68 ± 0.083,1.899 ± 0.01,1.749 ± 0.014,0.725 ± 0.029
GCUGUCACCGGUGUAUUACCCUAGUGGUCGACCGGUCUGAUGAGUCUGUAGUGAGACGAAACAGC [GUAGUG],0.125 ± 0.029,1.94 ± 0.037,1.428 ± 0.0021,0.532 ± 0.051
GCUGUCACCGGUGUAUUACCCUAGUGGUCGACCGGUCUGAUGAGUCUCUAUGGAGACGAAACAGC [CUAUGG],0.518 ± 0.013,1.888 ± 0.00026,1.6 ± 0.027,0.234 ± 0.17
GCUGUCACCGGUGUAUUACCCUAGUGGUCGACCGGUCUGAUGAGUCUAUAUCGAGACGAAACAGC [AUAUCG],0.607 ± 0.0094,1.86 ± 0.065,1.44 ± 0.045,0.756 ± 0.042

# From the supplement of paper PMC6757056
